Here are results for one molecule from patent publication US20210060185A1.

The assay concerns the target T1, GvpA of Anabaena flos-aquae (primary shell protein of the gas vesicle) (Anabaena flos-aquae) (UniProt P10397).
T1 sequence: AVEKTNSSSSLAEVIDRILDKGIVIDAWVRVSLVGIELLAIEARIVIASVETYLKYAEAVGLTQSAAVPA
In words: cell-based or functional assay.

B1: WT Ana GvpC (under pTet promoter) (protein)
chain: MISLMAKIRQEHQSIAEKVAELSLETREFLSVTTAKRQEQAEKQAQELQAFYKDLQETSQQFLSETAQARIAQAEKQAQELLAFHKELQETSQQFLSATAQARIAQAEKQAQELLAFYQEVRETSQQFLSATAQARIAQAEKQAQELLAFHKELQETSQQFLSATADARTAQAKEQKESLLKFRQDLFVSIFG
The molecule B1 registered a nonlinear ultrasound contrast of Nissle cells expressing ASGClpXP, with against without aTc induction of WT GvpC of 10 dB.
